Experimental data reported in patent publication CN113150152A (UNIV XI AN JIAOTONG, dated 2021).

Experiments:
[1] = target: T1, 人TIM-3重组蛋白 (T cell immunoglobulin domain and mucin domain-3) (human, UniProt Q8TDQ0 22-202, limits assumed); assay: same number as the ELISA EC50 of paragraph 67, here called KD
T1 construct: Recombinant protein coated on 96-well plates; The construct is not described; also called TIM-3蛋白

[2] = target: T1, 人TIM-3重组蛋白 (T cell immunoglobulin …); assay: ELISA, coated TIM-3 recombinant protein, serially diluted nanobody, anti-his detection, GraphPad least-squares fit

B1: NbR2G3 (抗人源T细胞表面抑制性分子TIM-3的特异性纳米抗体) (VHH)
VHH: QVQLVESGGGLVQAGGSLRLSCAASGRTISNYNMGWFRQAPGKEREFAAITRSGGSTYYADSAKGRFTISRDNAKNTVYLQMNSLKPDDTAVYYCDAIPEGLVGRNLGYWGQGTQVTVSS
[1]
  Kd: 76 nM
[2]
  EC50: 76 nM
